According to US20240400677A1 (ELECTRA THERAPEUTICS, published 2024):
Values belong to the binder of their own block, whether it stands above or below them.

How the values were obtained:
[1] = target: T1, Human SIRPαV2 (plate-coated extracellular domain) (Homo sapiens, UniProt P78324); test: ELISA, coated SIRP ECD (2 µg/mL), anti-human IgG, luminescence
T1 construct: extracellular domain
Method in brief: (§1)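 Plate-coated SIRP extracellular domain (2 μg/mL), blocked, then exposed to purified antibodies in titration, after transient expression in Expi293F cells for 5 days and Protein A purification. Bound antibody is detected with anti-human IgG and a chemiluminescent substrate, and reported as relative luminescence units.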

[2] = target: T2, extracellular binding domain of human SIRPγ (plate-coated) (human, UniProt Q9P1W8 29-360); test: as above
T2 construct: also called hSIRPγ
Method in brief: as §1

[3] = target: T3, cynomolgus monkey SIRPγ on CHO cells (cynomolgus monkey, UniProt Q9P1W8 29-386 (human entry)); test: flow cytometry, CHO transfectants, anti-human IgG
T3 construct: also called Cyno SIRPγ CHO
T3 chain: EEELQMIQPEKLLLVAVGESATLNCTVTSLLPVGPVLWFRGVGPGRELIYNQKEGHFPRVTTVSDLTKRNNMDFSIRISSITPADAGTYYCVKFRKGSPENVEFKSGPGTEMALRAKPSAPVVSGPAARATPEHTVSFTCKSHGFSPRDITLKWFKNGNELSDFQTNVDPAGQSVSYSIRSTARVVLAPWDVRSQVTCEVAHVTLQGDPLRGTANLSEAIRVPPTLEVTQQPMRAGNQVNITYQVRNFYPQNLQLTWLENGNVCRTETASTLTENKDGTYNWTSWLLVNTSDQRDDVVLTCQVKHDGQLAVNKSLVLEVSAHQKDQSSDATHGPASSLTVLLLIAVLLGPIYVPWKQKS
Method in brief: (§2)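 Read-out is median fluorescence intensity for each antibody concentration, measured after a titration series is bound to stably transfected CHO cells and stained with labelled anti-human IgG. The scFv data come from myc-tagged crude PPE, also run on parental CHO-K1, where fold change below 2.0 denotes no binding.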

[4] = target: T4, cynomolgus monkey SIRPα on CHO cells (cynomolgus monkey, UniProt A0A2K5VYQ9 31-507); test: flow cytometry, CHO transfectants, anti-human IgG
T4 construct: whole, on cells; also called Cyno SIRPα CHO
T4 sequence: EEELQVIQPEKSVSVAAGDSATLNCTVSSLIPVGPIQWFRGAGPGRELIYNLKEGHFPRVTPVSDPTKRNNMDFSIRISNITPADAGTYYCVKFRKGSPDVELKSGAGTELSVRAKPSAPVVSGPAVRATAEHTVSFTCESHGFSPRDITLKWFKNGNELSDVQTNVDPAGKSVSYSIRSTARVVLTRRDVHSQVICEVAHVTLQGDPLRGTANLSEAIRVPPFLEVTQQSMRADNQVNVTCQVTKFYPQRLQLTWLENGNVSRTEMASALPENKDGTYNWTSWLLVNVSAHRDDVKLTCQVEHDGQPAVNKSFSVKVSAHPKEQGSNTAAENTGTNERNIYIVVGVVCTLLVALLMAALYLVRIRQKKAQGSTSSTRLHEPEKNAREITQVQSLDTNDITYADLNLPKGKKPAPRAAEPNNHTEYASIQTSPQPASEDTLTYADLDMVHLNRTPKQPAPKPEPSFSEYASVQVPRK
Method in brief: as §2

[5] = target: T5, human SIRPγ on stably transfected CHO cells (human, UniProt Q9P1W8 29-387); test: flow cytometry, CHO transfectants, anti-human IgG
T5 construct: also called Human SIRPγ CHO
Method in brief: as §2

[6] = target: T6, Cynomolgus Monkey SIRPγ (plate-coated extracellular domain); test: ELISA, coated SIRP ECD (2 µg/mL), anti-human IgG, luminescence
T6 construct: also called Cyno SIRPγ
T6 extracellular domain: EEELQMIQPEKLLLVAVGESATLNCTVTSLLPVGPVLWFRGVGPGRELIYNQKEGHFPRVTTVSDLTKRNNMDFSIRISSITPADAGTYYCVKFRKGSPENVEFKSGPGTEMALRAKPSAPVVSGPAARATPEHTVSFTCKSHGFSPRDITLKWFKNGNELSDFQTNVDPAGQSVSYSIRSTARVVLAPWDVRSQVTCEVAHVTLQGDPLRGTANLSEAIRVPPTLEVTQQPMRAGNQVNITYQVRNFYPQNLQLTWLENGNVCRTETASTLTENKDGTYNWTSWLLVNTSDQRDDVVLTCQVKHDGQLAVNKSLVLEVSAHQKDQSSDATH
Method in brief: as §1

[7] = target: T2, extracellular binding domain of human …; test: competition ELISA, coated SIRPγ ECD, antibody 1 h then 10 µg/mL biotinylated CD47-Fc (blocked ligand), streptavidin-HRP
Procedure: To carry out the competition experiment, the extracellular binding domain of SIRPγ was coated onto a high protein-binding plate and blocked. A titration of each SIRPγ antibody was incubated on the plate for 1 hour. […] Following a wash, streptavidin-HRP was added. The plate was washed again and developed using a chemiluminescent substrate. The plate was read on a plate reader to assess luminescence. […] A known blocker antibody was used as a positive control.

[8] = target: T3, cynomolgus monkey SIRPγ on CHO cells; test: flow cytometry, myc-scFv PPE
Method in brief: as §2

[9] = target: T5, human SIRPγ on stably transfected CHO …; test: flow cytometry, myc-scFv PPE
Method in brief: as §2

[10] = target: T7, cynomolgus monkey SIRPγ-His monomer protein (cynomolgus monkey, UniProt Q9P1W8 29-359 (human entry), limits assumed); test: BLI Octet, captured scFv PPE, cyno SIRP
T7 construct: also called Cyno SIRPγ; Cyno SIRPγ-His
T7 chain: T6 extracellular domain
Method in brief: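 Bio-layer interferometry used biotinylated anti-V5 on streptavidin sensors to capture V5-tagged scFv from crude periplasmic extract. Monomeric His-tagged SIRP protein at 500 nM was associated, then dissociated in wash buffer. Off-rate (kdis) was analyzed from the kinetic traces.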

[11] = target: T8, human SIRPγ-His monomer protein (human, UniProt Q9P1W8 29-360); test: BLI Octet, V5-scFv PPE captured, SIRP-His 500 nM
T8 construct: also called hSIRPγ

[12] = target: human SIRPβ1-His monomer protein (human, UniProt O00241 30-371, limits assumed); test: BLI Octet, V5-scFv PPE captured, SIRP-His 500 nM
[13] = target: T9, human SIRPγ on primary human T-cells (human, UniProt Q9P1W8 29-387); test: flow cytometry, dye-conjugated antibody, human whole blood (3 donors)
T9 construct: endogenous SIRPγ of donor T-cells; also called SIRPγ on T-cells
Procedure: Selected antibodies and an isotype control were tested for binding to human T-cells, B-cells, NK cells, monocytes, and granulocytes. […] Up to 50 μg/mL fluorescent dye-conjugated antibodies or isotype controls were incubated with whole blood from three normal donors. T-cells were identified as the CD14−, CD20−, SSClow, and CD3+ population or further identified to be CD4+ or CD8+ populations. B-cells were identified as the CD14−, SSClow, and CD20+ population. NK cells were identified as CD14−, CD20−, CD3−, and CD56+. Monocytes were identified as the SSClow and CD14+ population. Granulocytes were identified as the CD14−, CD20−, CD3−, SSChigh population. Graphs depict the median fluorescence intensity (MFI) of each population.

[14] = target: T10, human SIRPβ1 on CHO cells (co-transfected with DAP12) (human, UniProt O00241 30-398); test: flow cytometry, CHO transfectants, anti-human IgG
T10 construct: whole, on cells; co-transfected with DAP12; also called Human SIRPβ1 CHO
Method in brief: as §2

[15] = target: T7, cynomolgus monkey SIRPγ-His monomer …; test: BLI Octet, antibody on AHC, global 1:2 model
Procedure: (§3) Antibodies were coated onto anti-human Fc capture (AHC) biosensors. SIRP-His monomer protein or bivalent SIRP protein with mouse Fc at four concentrations (200 nM, 100 nM, 50 nM, 25 nM) were exposed to the biosensor to measure on-rate kinetics of SIRP antibodies binding to SIRP protein. The biosensors were then exposed to wash buffer to measure off-rate kinetics. The resulting kinetic data were analyzed and fitted using a global 1:2 binding model.

[16] = target: T11, bivalent human SIRPγ protein with mouse Fc (human, UniProt Q9P1W8 29-360); test: BLI Octet, antibody on AHC, global 1:2 model
T11 construct: also called Human SIRPγ-mFc
Procedure: as §3

T2 sequence (Q9P1W8 29-360 limits assumed): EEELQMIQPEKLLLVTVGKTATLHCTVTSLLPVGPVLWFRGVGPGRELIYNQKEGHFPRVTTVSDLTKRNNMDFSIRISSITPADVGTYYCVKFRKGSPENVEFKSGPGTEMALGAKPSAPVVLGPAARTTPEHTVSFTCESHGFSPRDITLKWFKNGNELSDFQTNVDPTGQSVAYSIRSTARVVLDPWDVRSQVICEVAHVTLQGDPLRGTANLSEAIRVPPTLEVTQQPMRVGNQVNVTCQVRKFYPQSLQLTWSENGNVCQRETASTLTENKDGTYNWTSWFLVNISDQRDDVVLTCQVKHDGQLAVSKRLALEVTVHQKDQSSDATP
T5 sequence (Q9P1W8 29-387 limits assumed): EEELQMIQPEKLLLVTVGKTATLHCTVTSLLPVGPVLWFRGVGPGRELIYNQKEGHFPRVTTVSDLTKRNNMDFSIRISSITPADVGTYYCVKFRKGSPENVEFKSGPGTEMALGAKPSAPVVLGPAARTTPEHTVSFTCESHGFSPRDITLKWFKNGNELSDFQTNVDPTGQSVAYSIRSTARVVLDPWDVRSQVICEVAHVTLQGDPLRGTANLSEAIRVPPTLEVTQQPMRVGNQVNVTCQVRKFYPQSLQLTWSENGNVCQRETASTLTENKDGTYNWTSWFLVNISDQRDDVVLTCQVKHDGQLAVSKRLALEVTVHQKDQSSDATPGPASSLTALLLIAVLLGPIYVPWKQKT
T1 sequence (P78324 other isoform, or with tags, fused parts or gaps limits assumed): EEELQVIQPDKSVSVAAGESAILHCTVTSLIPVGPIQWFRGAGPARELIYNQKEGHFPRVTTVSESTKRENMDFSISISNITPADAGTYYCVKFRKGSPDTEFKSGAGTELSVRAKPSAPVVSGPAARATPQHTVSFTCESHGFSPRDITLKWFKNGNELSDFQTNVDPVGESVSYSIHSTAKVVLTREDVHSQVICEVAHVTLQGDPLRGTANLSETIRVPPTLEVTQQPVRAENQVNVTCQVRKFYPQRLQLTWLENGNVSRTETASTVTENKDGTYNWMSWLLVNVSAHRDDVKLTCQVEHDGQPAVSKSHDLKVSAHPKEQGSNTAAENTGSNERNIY
T9 sequence (Q9P1W8 29-387 limits assumed): as the sequence (Q9P1W8 29-387 limits assumed) above
T10 sequence (O00241 30-398): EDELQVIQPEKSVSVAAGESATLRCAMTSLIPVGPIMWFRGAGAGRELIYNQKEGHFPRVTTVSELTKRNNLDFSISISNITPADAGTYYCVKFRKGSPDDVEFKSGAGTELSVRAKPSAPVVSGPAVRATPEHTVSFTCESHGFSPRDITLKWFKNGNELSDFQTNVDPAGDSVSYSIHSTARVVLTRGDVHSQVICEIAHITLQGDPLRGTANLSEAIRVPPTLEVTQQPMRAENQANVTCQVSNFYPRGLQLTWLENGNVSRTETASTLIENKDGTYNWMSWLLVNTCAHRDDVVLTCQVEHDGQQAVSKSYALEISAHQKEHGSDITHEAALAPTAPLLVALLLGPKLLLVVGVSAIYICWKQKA
T11 sequence (Q9P1W8 29-360 limits assumed): as the sequence (Q9P1W8 29-360 limits assumed) above
T8 sequence (Q9P1W8 29-360 limits assumed): as above
Chain of human SIRPβ1-His monomer protein (O00241 30-371 limits assumed): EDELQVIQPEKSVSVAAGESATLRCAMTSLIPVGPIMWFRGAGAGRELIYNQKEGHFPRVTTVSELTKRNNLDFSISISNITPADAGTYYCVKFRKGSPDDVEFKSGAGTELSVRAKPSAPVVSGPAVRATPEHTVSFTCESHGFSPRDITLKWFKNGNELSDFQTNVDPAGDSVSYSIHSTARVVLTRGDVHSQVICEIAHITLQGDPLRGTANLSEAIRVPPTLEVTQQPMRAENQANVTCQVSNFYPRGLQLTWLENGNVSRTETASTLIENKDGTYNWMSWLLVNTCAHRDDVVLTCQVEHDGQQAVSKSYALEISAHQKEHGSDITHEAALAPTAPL

B3: Antibody 64 (antibody, V domains shown)
VH: QVQLVQSGAEVKKPGASVKVSCKASGYTFTSYYMHWVRQAPGQGLEWMGRINPNSGGTKYAQKFQGRVTMTRDTSTSTVYMELSSLRSEDTAVYYCARLGSAYFDLWGRGTLVTVSS
VL: DIQMTQSPSSLSASVGDRVTITCRASQSVDTWLAWYQQKPGKAPKLLIYEASTLESGVPSRFSGSGSGTDFTLTISSLQPEDFATYYCQQANSFPITFGQGTRLEIK
EC50 (read off the curve) [3]: ~0.4 µg/mL
binding result [4]: no binding (tested: about 20 µg/mL)
EC50 (read off the curve) [5]: ~0.1 µg/mL
binding result [6]: binds
IC50 (read off the curve) [7]: ~0.2 µg/mL

B4: Antibody 22 (scFv, V domains shown)
VH: QVQLVQSGAEVKKPGASVKVSCKASGYTFTSHDINWVRQAPGQGLEWMGISNPSGGSTYYAQKFQGRVTMTRDTSTSTVYMELSSLRSEDTAVYYCASSRRYWNGAFDYWGQGTLVTVSS
VL: not shown
notes: scFv in crude PPE, V5/myc-tagged
MFI fold change over parental CHO [8]: 8.24 fold
MFI fold change over parental CHO [9]: 3.17 fold
binding result [10]: binds
kdis [11]: < 0.001 s⁻¹
kdis [12]: < 0.001 s⁻¹

B5: Antibody 6 (antibody, V domains shown)
VH: QVQLVQSGAEVKKPGASVKVSCKASGYTFTGYHIHWVRQAPGQGLEWMGWINPNSGGTNYAQKFQGRVTMTRDTSINTAYMELNRLRSDDTAVFYCARERVGYCSRPSCLDDLNIWGQGTMVTVSS
VL: DIQMTQSPSTLSASVGDRVTITCRASQSISSWLAWYQQKPGKAPKLLIYKASSLETGVPSRFSGSGSGTEFTLTISSLQPDDFATYYCQQYDSYYTFGQGTKLEIK
EC50 (read off the curve) [6]: ~0.1 µg/mL
EC50 (read off the curve) [2]: ~0.02 µg/mL
EC50 (read off the curve) [13]: ~0.1 µg/mL

B6: Antibody 5 (antibody, V domains shown)
VH: B5 VH
VL: B5 VL
EC50 (read off the curve) [6]: ~0.07 µg/mL
EC50 (read off the curve) [2]: ~0.02 µg/mL
EC50 (read off the curve) [13]: ~0.1 µg/mL

B7: Antibody 54 (antibody, V domains shown)
VH: QVQLVQSGAEVKKPGASVKVSCKASGYSFSDYYMHWVRQAPGQGLEWMGWMSPNSGNTGYAQKFQGRVTMTRDTSTSTVYMELSSLRSEDTAVYYCARQREEYGHYYYGMDVWGQGTMVTVSS
VL: EIVMTQSPATLSVSPGERATLSCRASQSLGSTYLAWYQQKPGQAPRLLIYGASTRATGIPARFSGSGSGTEFTLTISSLQSEDFAVYYCQQYYSSPPTFGQGTKVEIK
EC50 (read off the curve) [3]: ~0.8 µg/mL
binding result [4]: no binding (tested: about 20 µg/mL)
binding result [14]: no binding (tested: about 20 µg/mL)
EC50 (read off the curve) [5]: ~0.9 µg/mL
IC50 (read off the curve) [7]: ~0.1 µg/mL

The remaining lines, values ahead:

binding result [1]: no binding (tested: about 40 µg/mL)
EC50 (read off the curve) [2]: ~0.1 µg/mL
B1: Antibody 3 (antibody, V domains shown)
VH: QVQLVESGGGVVQPGRSLRLSCAASGFTFSNYGMHWVRQAPGKGLEWVAFIWYDGSNKNYADSVKGRFTISRDNPTNTLYLQMNSLRAEDTAVYYCAREEQWLDYWGQGTLVTVSS
VL: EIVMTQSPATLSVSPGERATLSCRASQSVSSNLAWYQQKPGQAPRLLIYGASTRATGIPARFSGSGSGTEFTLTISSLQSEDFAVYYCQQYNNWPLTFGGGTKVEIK

binding result [1]: no binding (tested: about 40 µg/mL)
EC50 (read off the curve) [2]: ~0.1 µg/mL
B2: Antibody 4 (antibody, V domains shown)
VH: B1 VH
VL: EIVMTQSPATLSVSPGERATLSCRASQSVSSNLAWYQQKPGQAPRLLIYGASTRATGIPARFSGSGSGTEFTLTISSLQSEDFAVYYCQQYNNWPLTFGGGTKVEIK

Kd [15]: 34.1 nM
Kd [16]: 2050 nM
EC50 (read off the curve) [3]: ~0.2 µg/mL
binding result [4]: no binding (tested: about 30 µg/mL)
binding result [14]: no binding (tested: about 30 µg/mL)
EC50 (read off the curve) [5]: ~0.2 µg/mL
IC50 (read off the curve) [7]: ~0.2 µg/mL
B8: Antibody 84 (antibody, V domains shown)
VH: QVQLVQSGAEVKKPGASVKVSCKASGYTFTSYYMHWVRQAPGQGLEWMGWINPNSGNAGFAQKFQGRVTMTRDTSTSTVYMELSSLRSEDTAVYYCARGPVYSYGPFDYWGQGTLVTVSS
VL: DIQMTQSPSSLSASVGDRVTITCRASQGISTYLAWYQQKPGKAPKLLIYAASTLQSGVPSRFSGSGSGTDFTLTISSLQPEDFATYYCQQSHSAPITFGQGTKVEIK
